Assay results reported in article PMC10397247.
Like-named read-outs stand apart in the source and are kept apart here.

Columns and labels:
Test in all cases: two-hybrid library CCmax;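 note: natural log of median RNA to DNA barcode read ratio; higher means stronger binding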
4H2699-AA = target: T1, 4H2699-AA; details: mean of both orientations
T1 chain: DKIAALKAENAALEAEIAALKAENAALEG

4H464-AA = target: T2, 4H464-AA
T2 chain: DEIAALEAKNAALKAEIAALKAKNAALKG

4H446-AA = target: T3, 4H446-AA; details: mean of both orientations
T3 chain: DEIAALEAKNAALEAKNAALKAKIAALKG

4H2903-AA = target: T4, 4H2903-AA; details: mean of both orientations
T4 chain: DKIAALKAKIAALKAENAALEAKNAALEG

4H3049-AA = target: T5, 4H3049-AA; details: mean of both orientations
T5 chain: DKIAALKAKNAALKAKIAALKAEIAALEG

4H3969-AA = target: T6, 4H3969-AA; details: mean of both orientations
T6 chain: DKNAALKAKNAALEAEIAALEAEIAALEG

4H2728-AA = target: T7, 4H2728-AA; details: mean of both orientations
T7 chain: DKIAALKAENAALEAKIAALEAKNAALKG

4H3595-AA = target: T8, 4H3595-AA
T8 chain: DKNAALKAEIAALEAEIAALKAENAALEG

4H2580-AA = target: T9, 4H2580-AA; details: mean of both orientations
T9 chain: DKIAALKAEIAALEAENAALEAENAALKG

4H340-AA = target: T10, 4H340-AA
T10 chain: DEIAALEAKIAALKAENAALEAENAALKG

4H1594-AA = target: T11, 4H1594-AA; details: mean of both orientations
T11 chain: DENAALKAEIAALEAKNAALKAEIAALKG

4H993-AA = target: T12, 4H993-AA; details: mean of both orientations
T12 chain: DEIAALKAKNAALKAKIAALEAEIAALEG

4H3112-AA = target: T13, 4H3112-AA; details: mean of both orientations
T13 chain: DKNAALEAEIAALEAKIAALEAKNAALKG

4H2907-AA = target: T14, 4H2907-AA; details: mean of both orientations
T14 chain: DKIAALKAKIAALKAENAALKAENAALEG

4H2277-AA = target: T15, 4H2277-AA; details: mean of both orientations
T15 chain: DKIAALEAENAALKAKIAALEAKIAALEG

4H1513-AA = target: T16, 4H1513-AA; details: mean of both orientations
T16 chain: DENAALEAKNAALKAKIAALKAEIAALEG

4H2729-AA = target: T17, 4H2729-AA; details: mean of both orientations
T17 chain: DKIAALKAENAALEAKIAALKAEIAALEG

4H2883-AA = target: T18, 4H2883-AA; details: mean of both orientations
T18 chain: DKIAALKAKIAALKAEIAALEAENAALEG

4H3343-AA = target: T19, 4H3343-AA; details: mean of both orientations
T19 chain: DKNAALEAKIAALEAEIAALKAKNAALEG

4H2165-AA = target: T20, 4H2165-AA; details: mean of both orientations
T20 chain: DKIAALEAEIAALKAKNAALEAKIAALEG

4H32-AA = target: T21, 4H32-AA; details: mean of both orientations
T21 chain: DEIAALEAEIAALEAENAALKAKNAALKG

4H2837-AA = target: T22, 4H2837-AA; details: mean of both orientations
T22 chain: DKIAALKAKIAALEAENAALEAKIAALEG

4H2648-AA = target: T23, 4H2648-AA; details: mean of both orientations
T23 chain: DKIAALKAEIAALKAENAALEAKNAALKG

4H3627-AA = target: T24, 4H3627-AA; details: mean of both orientations
T24 chain: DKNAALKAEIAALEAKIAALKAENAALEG

4H3718-AA = target: T25, 4H3718-AA; details: mean of both orientations
T25 chain: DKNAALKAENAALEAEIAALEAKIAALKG

4H2198-AA = target: T26, 4H2198-AA; details: mean of both orientations
T26 chain: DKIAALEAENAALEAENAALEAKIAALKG

4H982-AA = target: T27, 4H982-AA; details: mean of both orientations
T27 chain: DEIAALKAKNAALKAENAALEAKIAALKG

4H1629-AA = target: T28, 4H1629-AA; details: mean of both orientations
T28 chain: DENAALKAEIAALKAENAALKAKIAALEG

4H56-AA = target: T29, 4H56-AA; details: mean of both orientations
T29 chain: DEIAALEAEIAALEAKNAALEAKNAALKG

4H452-AA = target: T30, 4H452-AA; details: mean of both orientations
T30 chain: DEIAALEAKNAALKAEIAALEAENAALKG

4H745-AA = target: T31, 4H745-AA; details: mean of both orientations
T31 chain: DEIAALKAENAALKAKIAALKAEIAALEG

4H3073-AA = target: T32, 4H3073-AA; details: mean of both orientations
T32 chain: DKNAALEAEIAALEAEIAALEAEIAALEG

4H406-AA = target: T33, 4H406-AA; details: mean of both orientations
T33 chain: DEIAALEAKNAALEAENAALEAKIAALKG

4H930-AA = target: T34, 4H930-AA; details: mean of both orientations
T34 chain: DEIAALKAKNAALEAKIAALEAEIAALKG

4H_GCN4 = target: 4H_GCN4
4H3130-AA = target: T35, 4H3130-AA; details: mean of both orientations
T35 chain: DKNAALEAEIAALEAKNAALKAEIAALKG

4H3381-AA = target: T36, 4H3381-AA; details: mean of both orientations
T36 chain: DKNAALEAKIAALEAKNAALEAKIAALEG

4H1864-AA = target: T37, 4H1864-AA; details: mean of both orientations
T37 chain: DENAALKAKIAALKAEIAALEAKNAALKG

4H171-AA = target: T38, 4H171-AA
T38 chain: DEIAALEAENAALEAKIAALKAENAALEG

4H2109-AA = target: T39, 4H2109-AA; details: mean of both orientations
T39 chain: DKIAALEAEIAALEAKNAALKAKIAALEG

4H1842-AA = target: T40, 4H1842-AA; details: mean of both orientations
T40 chain: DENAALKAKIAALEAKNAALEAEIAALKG

4H174-AA = target: T41, 4H174-AA; details: mean of both orientations
T41 chain: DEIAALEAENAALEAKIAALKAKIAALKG

P9-AA = target: T42, P9-AA; details: mean of both orientations
T42 chain: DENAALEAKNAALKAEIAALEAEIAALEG

4H_GCN4, sequence (chain, as listed by the source): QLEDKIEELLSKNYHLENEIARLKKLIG

B1: 4H1064-AA (peptide)
chain: DENAALEAEIAALEAKIAALEAKNAALKG
An interaction score (4H2699-AA) of -1.48, an interaction score (4H464-AA) of -1.84 and an interaction score (4H446-AA) of -1.26 were found for B1 in this work. It also gave an interaction score (4H2903-AA) of 1.45, an interaction score (4H3049-AA) of 0.863 and an interaction score (4H3969-AA) of -1.31. It also gave an interaction score (4H2728-AA) of -1.43, an interaction score (4H3595-AA) of 0.0501 and an interaction score (4H2580-AA) of 1.19.

B2: 4H1153-AA (peptide)
chain: DENAALEAENAALEAEIAALEAEIAALEG
An interaction score (4H340-AA) of -1.49, an interaction score (4H1594-AA) of -1.13 and an interaction score (4H993-AA) of 1.59 were found for B2 in this work. The interaction score (4H3112-AA) was -2.33, the interaction score (4H2907-AA) was -1.67 and the interaction score (4H2277-AA) was -1.07. The interaction score (4H1513-AA) was 1.5, the interaction score (4H2729-AA) was 0.0308 and the interaction score (4H2883-AA) was -1.14. For the same binder, the interaction score (4H3343-AA) was -0.81, the interaction score (4H2165-AA) was -1.33 and the interaction score (4H32-AA) was -2.43. The interaction score (4H2837-AA) was -1.49, the interaction score (4H2648-AA) was -1.19 and the interaction score (4H3627-AA) was -0.179. The interaction score (4H3718-AA) was 0.217, the interaction score (4H2198-AA) was -1.56 and the interaction score (4H982-AA) was -0.675. The interaction score (4H1629-AA) was -1.34.

B3: 4H1845-AA (peptide)
chain: DENAALKAKIAALEAKNAALEAKIAALEG
An interaction score (4H340-AA; mean of both orientations) of -1.97, an interaction score (4H3112-AA) of -1.24 and an interaction score (4H2907-AA) of -1.92 were found for B3 in this work. The interaction score (4H32-AA) was -1.5, the interaction score (4H2648-AA) was -1.59 and the interaction score (4H3718-AA) was -1.65. The interaction score (4H2198-AA) was -1.5 and the interaction score (4H982-AA) was -1.6.

B4: 4H2253-AA (peptide)
chain: DKIAALEAENAALKAEIAALKAKIAALEG
An interaction score (4H56-AA) of -1.23, an interaction score (4H452-AA) of -1.74 and an interaction score (4H745-AA) of 0.647 were found for B4 in this work. It also gave an interaction score (4H3073-AA) of -0.681, an interaction score (4H406-AA) of -1.67 and an interaction score (4H930-AA) of -1.04. It also gave an interaction score (4H_GCN4) of -1.12, an interaction score (4H3130-AA) of -1.14 and an interaction score (4H3381-AA) of -1.4.

B5: 4H1257-AA (peptide)
chain: DENAALEAENAALKAKIAALKAEIAALEG
An interaction score (4H3112-AA) of 0.173, an interaction score (4H2699-AA) of -0.951 and an interaction score (4H464-AA; mean of both orientations) of -1.07 were found for B5 in this work. For the same binder, the interaction score (4H446-AA) was -1.65, the interaction score (4H2903-AA) was -1.62 and the interaction score (4H3049-AA) was -0.309. It also gave an interaction score (4H3969-AA) of 0.285, an interaction score (4H_GCN4) of -2.56 and an interaction score (4H2728-AA) of -0.459. It also gave an interaction score (4H3595-AA; mean of both orientations) of 0.807 and an interaction score (4H2580-AA) of -1.12.

B6: 4H171-AA (peptide)
chain: DEIAALEAENAALEAKIAALKAENAALEG
An interaction score (4H1864-AA) of 0.435, an interaction score (4H171-AA) of -1.01 and an interaction score (4H745-AA) of -1.45 were found for B6 in this work. For the same binder, the interaction score (4H2109-AA) was -0.826, the interaction score (4H1842-AA) was -1.26 and the interaction score (4H174-AA) was -1.16. The interaction score (4H930-AA) was -1.29, the interaction score (P9-AA) was -0.774 and the interaction score (4H3130-AA) was 0.164. For the same binder, the interaction score (4H3381-AA) was -1.57.
